In patent publication US20260374887 (published 2026):

Target: BAFF-R (human, UniProt Q96RJ3)
Assay: other, in vitro experiments

BAFF-R, sequence (Q96RJ3 7-71): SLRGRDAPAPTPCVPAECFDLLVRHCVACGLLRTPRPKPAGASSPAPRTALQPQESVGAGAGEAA

Kd: 0.046 nM
B1: ianalumab (VAY736) (antibody, V domains shown)
VH: QVQLQQSGPGLVKPSQTLSLTCAISGDSVSSNSAAWGWIRQSPGRGLEWLGRIYYRSKWYNSYAVSVKSRITINPDTSKNQFSLQLNSVTPEDTAVYYCARYDWVPKIGVFDSWGQGTLVTVSS
VL: DIVLTQSPATLSLSPGERATLSCRASQFISSSYLSWYQQKPGQAPRLLIYGSSSRATGVPARFSGSGSGTDFTLTISSLEPEDFAVYYCQQLYSSPMTFGQGTKVEIKR
